Earlier results on one substance are cited in publication doi:10.1101/390104.

Targets include Asp47 (UniProt position 68, KDKPEDAVLDV); Glu46 (UniProt position 67, NKDKPEDAVLD); Asp51 (UniProt position 72, EDAVLDVQGIA).
What all share (assay): NMR
What all share (conditions): folded inactive HdeA dimer, client-free (inferred from context); cited from earlier work

By pKa is commonly meant the pH at which an ionisable group is half protonated. Consider “Acid stress chaperone HdeA (wild type) (Escherichia coli)”, for which the pKa in the data set with Asp47 is 4.14; with Glu46 it was 4.07; in the data set with Asp51, 3.83.
